Test [1] concerns the target T1, human NPR1 on HEK293/hNPR1.myc.DDK cells (no hANP added) (human, UniProt P16066 33-1061).
T1 sequence (looked up): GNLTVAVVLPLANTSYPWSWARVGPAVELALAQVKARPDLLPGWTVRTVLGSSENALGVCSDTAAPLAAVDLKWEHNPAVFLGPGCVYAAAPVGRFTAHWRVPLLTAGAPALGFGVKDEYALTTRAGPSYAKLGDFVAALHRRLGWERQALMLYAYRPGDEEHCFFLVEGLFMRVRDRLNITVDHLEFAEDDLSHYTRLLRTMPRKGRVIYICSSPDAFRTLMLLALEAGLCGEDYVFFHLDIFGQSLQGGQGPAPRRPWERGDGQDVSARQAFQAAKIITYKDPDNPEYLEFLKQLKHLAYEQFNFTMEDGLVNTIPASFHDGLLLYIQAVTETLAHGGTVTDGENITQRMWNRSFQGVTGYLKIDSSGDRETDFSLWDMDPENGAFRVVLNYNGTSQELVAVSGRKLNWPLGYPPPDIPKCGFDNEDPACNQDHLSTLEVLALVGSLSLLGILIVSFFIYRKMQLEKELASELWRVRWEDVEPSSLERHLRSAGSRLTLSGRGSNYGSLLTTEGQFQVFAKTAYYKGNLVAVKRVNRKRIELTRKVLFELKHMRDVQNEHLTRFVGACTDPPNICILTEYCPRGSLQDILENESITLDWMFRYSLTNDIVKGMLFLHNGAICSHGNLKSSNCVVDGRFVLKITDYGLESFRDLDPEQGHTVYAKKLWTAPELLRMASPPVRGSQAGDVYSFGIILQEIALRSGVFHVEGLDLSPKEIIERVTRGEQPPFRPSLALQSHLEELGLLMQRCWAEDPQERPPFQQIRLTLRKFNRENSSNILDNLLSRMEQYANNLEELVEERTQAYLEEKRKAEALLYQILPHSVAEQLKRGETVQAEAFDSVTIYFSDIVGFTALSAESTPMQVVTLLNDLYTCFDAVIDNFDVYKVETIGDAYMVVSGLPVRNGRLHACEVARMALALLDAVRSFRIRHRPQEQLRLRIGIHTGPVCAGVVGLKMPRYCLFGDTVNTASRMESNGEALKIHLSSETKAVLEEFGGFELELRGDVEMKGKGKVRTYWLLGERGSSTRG
Briefly: cell-based or functional assay.

Test [2] deals with T2, monkey NPR1 extracellular domain expressed with a C-terminal myc-myc-hexahistidine (mfNPR1-MMH) (monkey, UniProt P16066 33-473 (human entry)).
T2 construct: also called monomeric monkey NPR1
T2 chain: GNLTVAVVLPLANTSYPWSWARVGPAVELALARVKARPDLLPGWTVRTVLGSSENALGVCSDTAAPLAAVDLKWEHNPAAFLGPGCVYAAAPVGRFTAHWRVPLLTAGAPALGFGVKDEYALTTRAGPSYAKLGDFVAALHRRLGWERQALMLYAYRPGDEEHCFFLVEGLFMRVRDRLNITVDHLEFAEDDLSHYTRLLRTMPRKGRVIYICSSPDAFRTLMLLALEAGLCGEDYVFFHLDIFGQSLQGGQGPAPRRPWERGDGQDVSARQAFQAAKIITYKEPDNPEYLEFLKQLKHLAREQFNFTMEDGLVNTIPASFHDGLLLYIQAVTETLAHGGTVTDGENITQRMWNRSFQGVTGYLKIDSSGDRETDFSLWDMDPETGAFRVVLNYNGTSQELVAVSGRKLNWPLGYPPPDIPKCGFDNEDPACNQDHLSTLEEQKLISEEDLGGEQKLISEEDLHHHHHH
Briefly: SPR, mAb captured, 25 C. In outline:
(§1)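 Capture surface: anti-human Fc mAb or anti-human Fcγ pAb amine-coupled to CM5; mAbs captured, NPR1 reagent as analyte.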

Test [3] deals with T3, human NPR1 extracellular domain expressed with a C-terminal myc-myc-hexahistidine (hNPR1-MMH) (human, UniProt P16066 33-473).
T3 construct: also called hNPR.mmh; monomeric human NPR1
T3 sequence (P16066 other isoform, or with tags, fused parts or gaps): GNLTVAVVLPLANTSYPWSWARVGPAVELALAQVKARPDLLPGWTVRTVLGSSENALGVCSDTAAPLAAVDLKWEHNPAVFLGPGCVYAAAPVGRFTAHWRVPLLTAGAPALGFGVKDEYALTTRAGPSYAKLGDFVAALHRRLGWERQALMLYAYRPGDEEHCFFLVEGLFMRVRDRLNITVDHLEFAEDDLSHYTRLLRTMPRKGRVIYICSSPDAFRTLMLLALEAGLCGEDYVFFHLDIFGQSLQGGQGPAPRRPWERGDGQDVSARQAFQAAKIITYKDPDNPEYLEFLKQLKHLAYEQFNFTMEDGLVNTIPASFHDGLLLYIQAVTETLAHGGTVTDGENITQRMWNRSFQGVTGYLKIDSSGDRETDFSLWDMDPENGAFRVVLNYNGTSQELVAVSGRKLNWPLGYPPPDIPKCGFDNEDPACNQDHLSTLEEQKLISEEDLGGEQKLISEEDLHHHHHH
The test can be described thus: SPR, mAb captured, 25 C. In outline: as §1
(SPR reads the build-up and loss of mass on a sensor chip optically.)

The target of test [4] is T4, human NPR1 extracellular domain expressed with a C-terminal mouse IgG2a (hNPR1-mFc) (human).
T4 construct: also called hNPR1-Fc; human NPR1 dimer
T4 chain: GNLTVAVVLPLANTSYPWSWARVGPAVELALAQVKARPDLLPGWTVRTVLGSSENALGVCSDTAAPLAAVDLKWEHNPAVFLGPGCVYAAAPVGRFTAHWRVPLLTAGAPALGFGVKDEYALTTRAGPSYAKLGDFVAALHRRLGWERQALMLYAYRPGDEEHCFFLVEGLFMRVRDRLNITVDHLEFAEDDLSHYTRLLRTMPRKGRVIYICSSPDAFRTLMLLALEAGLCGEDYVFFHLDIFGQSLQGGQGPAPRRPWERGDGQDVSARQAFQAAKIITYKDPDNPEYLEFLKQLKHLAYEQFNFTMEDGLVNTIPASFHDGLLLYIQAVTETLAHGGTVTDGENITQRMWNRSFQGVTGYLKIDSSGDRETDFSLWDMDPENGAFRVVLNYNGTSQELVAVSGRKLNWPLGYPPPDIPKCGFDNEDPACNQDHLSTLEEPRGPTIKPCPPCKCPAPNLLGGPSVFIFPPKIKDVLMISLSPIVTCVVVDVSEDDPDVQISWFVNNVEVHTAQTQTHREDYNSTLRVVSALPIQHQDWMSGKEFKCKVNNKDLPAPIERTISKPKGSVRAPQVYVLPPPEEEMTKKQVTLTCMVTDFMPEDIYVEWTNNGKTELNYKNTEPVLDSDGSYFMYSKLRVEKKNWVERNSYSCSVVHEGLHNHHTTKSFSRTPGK
Briefly: SPR, mAb captured, 25 C. In outline: as §1

In test [5] the target is mouse NPR1 extracellular domain expressed with a C-terminal myc-myc-hexahistidine (mNPR1-MMH) (mouse, UniProt P18293 29-469). The test can be described thus: SPR, mAb captured, 25 C. In outline: as §1

The record followed here is patent US20240309103A1 (Regeneron, published 2024).

B1: mAb22035 (antibody, V domains shown)
VH: EVQLVESGGGLVQPGRSLRLSCAASGFTFDDYAMHWVRQAPGKGLEWVSGISWNSGTIGYADSVKGRFTMSRDNAKNSLYLQMNSLRPEDTALYYCAKDMGVSLALWGAFDIWGQGTMVTVSS
VL: DIQMTQSPSSLSASVGDKVTITCRASQNIRTYLNWYQQKPGKAPKVLISTASSLQSGVPSRFSGSGSGTDFTLTISSLQPEDFAVFYCQQSFGIPRTFGQGTKVEIK
On to B1, for which, in test [1], the “EC50 of Ca2+ flux activation, Expt I” value was 83.7 to 384 nM and the “EC50 of Ca2+ flux activation, Expt II” value was > 200 nM. For the same molecule, in test [2], the “100 nM Ag Bound (RU)” value came to 245 RU, the Kd was 0.336 nM, the koff stood at 0.000143 s⁻¹ and the kon turned out to be 426000 M⁻¹ s⁻¹. In test [2], this molecule yielded a t½ of 1.35 h. In addition, in test [3], the “100 nM Ag Bound (RU)” value worked out at 210 RU; the affinity, expressed as Kd, was 0.738 nM; the koff came to 0.00015 s⁻¹; the kon stood at 203000 M⁻¹ s⁻¹. Further, the t½ in test [3] came out at 1.29 h. Further, in test [4], the “100 nM Ag Bound (RU)” value amounted to 198 RU, the Kd was found to be 0.365 nM, the off-rate (koff) came to 8.2e-05 s⁻¹ and the kon amounted to 225000 M⁻¹ s⁻¹. The molecule further showed a t½ in test [4] of 2.35 h. In addition, in test [5], the “100 nM Ag Bound (RU)” value stood at 0 RU and the binding result is on record as “no binding (tested: 100 nM)”.

B2: mAb22033 (antibody, V domains shown)
VH: QVQLVQSGAEVKKPGASVTVSCKASGYTFTDYYMHWVRQAPGQGLEWMGWIKPNSGGTNSAQRFQGRITMTWDTSISTAYMELSRLRSDDTAVYYCSRGGPVMNYYYYYGMDVWGQGTTVTVSS
VL: NIQMTQSPSSLSASVGDRVTITCRASQSIDSYLNWYQQKPGKAPKLLIYVASSLQSGVPSRFSGSGSGKDFTLTISSLQPEDFATYYCQQSYSIPTFGQGTRLEIK
As for B2, in test [1], the “EC50 of Ca2+ flux activation, Expt I” value was 83.7 to 384 nM and the “EC50 of Ca2+ flux activation, Expt II” value came out at 41.6 nM. Besides, in test [2], the “100 nM Ag Bound (RU)” value turned out to be 79 RU, binding was put at a Kd of 16.2 nM, the koff is 0.000291 s⁻¹ and the kon was found to be 17900 M⁻¹ s⁻¹. The t½ in test [2] worked out at 0.66 h. Further, in test [3], the “100 nM Ag Bound (RU)” value was 30 RU, the Kd worked out at 47.5 nM, the koff is 0.000406 s⁻¹ and the kon was 8550 M⁻¹ s⁻¹. In test [3], this molecule gave a t½ of 0.473 h. In addition, in test [4], the “100 nM Ag Bound (RU)” value is 56 RU, binding was put at a Kd of 1.03 nM, the koff came out at 6.38e-05 s⁻¹ and the kon turned out to be 61800 M⁻¹ s⁻¹. The molecule further had a t½ in test [4] of 3.02 h. In test [5], the “100 nM Ag Bound (RU)” value came out at 0 RU and the binding result is listed as “no binding (tested: 100 nM)”.

A word on the Kd: it is the concentration at which binding is half-saturated. What is called koff is the first-order rate constant of dissociation. As a reminder, the kon is the rate constant with which the complex forms. Usually t½ stands for the time in which the quantity being followed falls by half.
